Molecular target: T1, fusion protein between the extracellular domain of rat RET and placental alkaline phosphatase (rat, UniProt G3V9H8 24-637)
T1 construct: extracellular domain; Used as conditioned medium from 293 EBNA cells; Construct described in Sanicola et al. 1997; also called RET-AP
Assay: ternary complex assay without ligand (parental CHO medium or straight medium)
Description: Dynex Microlite-1 ELISA plates (Dynex Technologies) were coated with 1 μg/ml goat antibody specific for human Fc in 50 mM bicarbonate/carbonate, pH 9.6 for 16 hr. The plates were emptied and filled with 300 μl of 1% I-block (Tropix) in TBS/0.5% Tween-20 (TBST), for 1 hr. After washing three times with TBST the wells were filled with 100 μl of 1 μg/ml rGFRα1-Ig or mGFRα3-Ig diluted in conditioned media from 293 EBNA cells expressing the RET-AP fusion gene. 100 ul of conditioned media from the CHO neublastin clones was then added to the top well of a column of wells, and 2 fold serial dilutions were performed down each row of wells, and incubated for 1.5 hr at room temperature. The plates were then washed three times with TBST, and twice with 200 mM Tris pH9.8, 10 mM MgCl₂ (CSPD buffer). The wash solution was then replaced with 425 μM CSPD (Tropix) in CSPD buffer containing 1 mg/ml Sapphire chemiluminescence enhancer (Tropix), and incubated for 30′ at room temperature. The chemiluminescent output was measured using a Dynatech luminometer.
The initial experiments investigated whether neublastin produced by the CHO cell lines could mediate the binding of GFRα1 or GFRα3 to the extracellular domain of RET.

T1 sequence (G3V9H8 24-637): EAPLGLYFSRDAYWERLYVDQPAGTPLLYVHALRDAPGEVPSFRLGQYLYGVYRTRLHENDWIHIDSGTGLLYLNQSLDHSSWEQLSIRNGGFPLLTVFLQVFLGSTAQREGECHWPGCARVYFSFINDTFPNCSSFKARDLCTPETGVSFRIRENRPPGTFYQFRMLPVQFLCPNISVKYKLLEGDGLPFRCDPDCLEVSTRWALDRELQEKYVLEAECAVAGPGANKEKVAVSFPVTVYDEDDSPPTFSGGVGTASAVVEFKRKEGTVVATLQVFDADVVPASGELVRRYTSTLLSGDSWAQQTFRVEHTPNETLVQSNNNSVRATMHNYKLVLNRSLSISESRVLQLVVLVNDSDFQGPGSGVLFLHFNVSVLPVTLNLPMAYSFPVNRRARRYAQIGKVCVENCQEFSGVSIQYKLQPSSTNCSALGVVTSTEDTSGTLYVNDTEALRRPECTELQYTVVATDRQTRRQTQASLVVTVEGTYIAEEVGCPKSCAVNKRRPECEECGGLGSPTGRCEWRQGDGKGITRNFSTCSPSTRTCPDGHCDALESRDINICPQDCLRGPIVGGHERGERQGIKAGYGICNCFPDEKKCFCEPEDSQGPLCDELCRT

B1: fusion protein between the extracellular domain of rat GFRα1 and the Fc domain of human IgG1 (Fc fusion, UniProt Q62997 25-430, looked up, not shown: a dimerising Fc or GST)
chain: DRLDCVKASDQCLKEQSCSTKYRTLRQCVAGKETNFSLTSGLEAKDECRSAMEALKQKSLYNCRCKRGMKKEKNCLRIYWSMYQSLQGNDLLEDSPYEPVNSRLSDIFRAVPFISDVFQQVEHISKGNNCLDAAKACNLDDTCKKYRSAYITPCTTSMSNEVCNRRKCHKALRQFFDKVPAKHSYGMLFCSCRDIACTERRRQTIVPVCSYEERERPNCLSLQDSCKTNYICRSRLADFFTNCQPESRSVSNCLKENYADCLLAYSGLIGTVMTPNYVDSSSLSVAPWCDCSNSGNDLEDCLKFLNFFKDNTCLKNAIQAFGNGSDVTMWQPAPPVQTTTATTTTAFRVKNKPLGPAGSENEIPTHVLPPCANLQAQKLKSNVSGSTHLCLSDSDFGKDGLAGASS
notes: extracellular domain; Construct described in Sanicola et al. 1997; also called rGFRα1-Ig
- binding result: no binding

From patent US20020055467A1 (Biogen, published 2002)
